We go through 1 molecule from US20160193296A1, “METHODS FOR TREATMENT OF MICROCEPHALY ASSOCIATED AUTISM DISORDERS” (BROWN UNIVERSITY, priority 2012, published 2016).

Assay [1] deals with TrkB receptor. Nature of the assay: Western blot of TrkB receptor and phospho-Trk levels after BDNF in hippocampal cultures at 4 DIV. It counts as cell-based, mouse. Particulars: for TrkB receptor level normalized to time of BDNF administration: 50 ng/ml BDNF for 30 min. As to the method:
(§1) Hippocampi were dissected from P0-P1 mice, dissociated with papain (20 units/ml) in Earle's Balanced Salt Solution (EBSS) with bicarbonate at 37° C. for 30 min and triturated with a 1 ml pipette. Hippocampal neurons were placed on 8-well chamber slides coated with 1 mg/ml poly-D-lysine at a cell density of 3×10^5 cells/ml. For neuronal morphology, neurons at 1 DIV were transfected with EGFP constructs or together with testing constructs at a ratio of 1:1 using Lipofectamine 2000 (Invitrogen) according to manufacturer guidelines. For LysoTracker experiments, GFP transfected neurons at 5 DIV were incubated with 100 nM Lysotracker Red DND-99 at 37° C. for 30 min. After washing with PBS for 3 times, cells were imaged live or cells were fixed with 4% paraformaldehyde for 15 min and Z-series images were obtained under a Zeiss LSM710 confocal laser scanning microscope.
Next, we examined directly the levels of TrkB receptor in response to signaling. TrkB is well-known to be endocytosed upon binding BDNF and a significant degree of signaling has been proposed to occur within signaling endosomes upon endocytosis. […] To test this hypothesis, we examined TrkB receptor levels and phospho-Trk levels in response to BDNF signaling in NHE6 mutant and wild type hippocampal cultures at 4 DIV.
A general note: A western blot detects proteins with antibodies after separation by electrophoresis.

For assay [2], the system named is NHE6 mutant hippocampal neurons. Briefly: Axonal and dendritic branching of cultured hippocampal neurons with exogenous BDNF. The assay is classed as cell-based, mouse. As to the method: as §1
Images of cultured hippocampal neurons (2 DIV) were captured from randomly chosen fields on a Zeiss LSM710 confocal laser scanning microscope, blinded to genotypes, and traced using Metamorph Neurite Outgrowth software. The number of processes (i.e., neurites emanating directly from the cell body) per cell, the total number and total cumulative length of all neurite branches per cell and the length of the longest neurite per cell were determined. Z-series images of individual GFP-filled neurons at 5 DIV were obtained on a Carl Zeiss 710 confocal microscope and traced manually using Neurolucida software. Quantification of the branch number and total length of axons and dendrites per cell was done on images acquired with 20× objective. Quantitative analysis for LysoTracker red labeled endosomes was performed by using Neurolucida in images acquired with 63× objective. LysoTracker red puncta that completely overlapped with GFP-labeled dendrites or axons were scored as co-localized endosomes. Each experiment was performed on at least three different batches of cultured neurons.
Taken together our data support a model wherein due to loss of NHE6 there is an abnormal acidification of early endosomes resulting in impoverished branching as a result of decreases in BDNF/TrkB signaling. Given this model, we predicted that exogenous and high levels of BDNF may rescue the branching defects through enhancing TrkB signaling. To investigate the ability of exogenous BDNF to interact and improve the cellular phenotype seen, we added BDNF (50 ng/ml) to wild-type and mutant cultures at 2 DIV and examined cultures on day 5 for effects on axonal and dendritic branching associated with NHE6 mutation. […] We saw effects on both branching as well as an increase in the number of primary dendrites. […]

[3] abbreviates: NHE6 mutant neurons, BDNF 50 ng/ml added at 2 DIV, examined on day 5.

B1: BDNF: secreted protein, member of the neurotrophin family of growth factors; binds to the TrkB receptors (protein)
chain: HSDPARRGELSVCDSISEWVTAADKKTAVDMSGGTVTVLEKVPVSKGQLKQYFYETKCNPMGYTKEGCRGIDKRHWNSQCRTTQSYVRALTMDSKKRIGWRFIRIDTSCVCTLTIKRGR
With B1, the “TrkB receptor level normalized to time of BDNF administration” value in assay [1] (NHE6 mutant neurons) is 0.79+/−0.04. The “TrkB receptor level in mutant neurons as % of the control” value in assay [1] (mutant/WT, 50 ng/ml BDNF, 30 min) came out at 76.5%. For the same molecule, the “TrkB receptor level in mutant neurons as % of wild type” value in assay [1] (mutant/WT, 50 ng/ml BDNF, 60 min) came to 73.3%. Moreover, the “TrkB receptor level in mutant neurons as % of wild type” value in assay [1] (mutant/WT, 50 ng/ml BDNF, 2 h) was found to be 74.9%. Besides, the “induction of phospho-Trk in mutant compared to control” value in assay [1] (mutant/WT, after adding BDNF, throughout the whole treatment duration) is “approximately 48%”. Besides, the “TrkB receptor level normalized to time of BDNF administration” value in assay [1] (wild type neurons) is 1.03+/−0.06. For the same molecule, the “rescue of branching defects (in words)” value in assay [2] (NHE6 mutant cells, BDNF 50 ng/ml, 2 DIV to day 5) is “increased both axonal and dendritic branching in mutant cells to a level approaching wild-type levels”. In addition, in assay [2] (setting [3]), the axonal branching is 27.7+/−2.0 branch points per cell, the dendritic branching was 34.4+/−2.4 branches per cell and the primary dendrites is 8.7+/−0.4 dendrites.
